Numbering of substitutions follows the chain as printed.
T1: recombinant human CD123-Fc (human, UniProt P26951 19-305)
T1 construct: not shown: Fc part of CD123-Fc
T1 sequence: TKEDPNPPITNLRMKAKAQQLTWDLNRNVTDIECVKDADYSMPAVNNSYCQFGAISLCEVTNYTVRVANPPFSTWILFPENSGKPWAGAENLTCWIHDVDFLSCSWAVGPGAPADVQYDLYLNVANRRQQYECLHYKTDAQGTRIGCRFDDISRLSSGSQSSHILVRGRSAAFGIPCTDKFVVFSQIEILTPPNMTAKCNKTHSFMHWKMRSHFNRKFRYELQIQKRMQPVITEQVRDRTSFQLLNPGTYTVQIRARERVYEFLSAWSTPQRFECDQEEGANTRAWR

B1: SEQ ID NO 700 (designed binder)
chain: MGSWNEFYDRLSAIYFRLQALGGSEAELAAFEKEIAAFESELQAYKGKGNPEVEHLRWYAADIRMILQAYRHN
B2: SEQ ID NO 704 (designed binder)
chain: B1 chain with N5K, Y8D, D9N, S12Y, Y15E, F16D, Q19R
B3: SEQ ID NO 702 (designed binder)
chain: B1 chain with N5E, S12G, Y15F, F16A, Q19H, H55D
B4: SEQ ID NO 698 (designed binder)
chain: B1 chain with N5Y, D9N, F16A, H55D, M65Y, I66M
B5: SEQ ID NO 701 (designed binder)
chain: B1 chain with S24F
B6: SEQ ID NO 699 (designed binder)
chain: B1 chain with N5Y, F16A, H55D, M65Y, I66M
B7: SEQ ID NO 703 (designed binder)
chain: B1 chain with N5V, S12H, Q19L, H55D, M65L, I66V
B8: SEQ ID NO 725 (designed binder)
chain: MGSWYEFEHRLDAIYDRLWALGGSEAELAAFEKEIAAFESELQAYKGKGNPEVEWLREEAAWIRLWLQAYRHN
B9: SEQ ID NO 691 (designed binder)
chain: B8 chain with H9D, Y15Q, D16W, W55F, E59S, W62N, L65Q, W66H
B10: SEQ ID NO 730 (designed binder)
chain: B8 chain with Y5W, H9D, D12M, W19Y, W55Y, E58A, W62L, L65E, W66T
B11: SEQ ID NO 738 (designed binder)
chain: MGSWFEFEIRLEAIEDRLFALGGSEAELAAFEKEIAAFESELQAYKGKGNPEVEFLRDEAAEIRQVLQAYRHN
B12: SEQ ID NO 729 (designed binder)
chain: B11 chain with I9W, E15F, F19Y, F55V, D58A, Q65L, V66R
B13: SEQ ID NO 734 (designed binder)
chain: B11 chain with F5E, E8T, I9D, E12W, F19Y, F55W, E62F, Q65K, V66S
B14: SEQ ID NO 727 (designed binder)
chain: B8 chain with Y5V, H9N, D12E, Y15E, D16N, E59D, W62Q, L65M, W66M
B15: SEQ ID NO 728 (designed binder)
chain: B8 chain with H9E, D12E, Y15E, E59Q, W62F, L65T, W66M
B16: SEQ ID NO 740 (designed binder)
chain: B11 chain with F5I, I9D, F55W, D58Q, Q65L, V66M
B17: SEQ ID NO 735 (designed binder)
chain: B11 chain with F5V, E8V, I9D, E59Q, E62Y, Q65F, V66M
B18: SEQ ID NO 732 (designed binder)
chain: B11 chain with F5I, E8W, I9D, F19W, F55E, E62W, Q65D, V66S
B19: SEQ ID NO 739 (designed binder)
chain: B11 chain with F5Y, E8Y, I9Q, F55W, Q65V
B20: SEQ ID NO 737 (designed binder)
chain: B11 chain with F5W, I9M, F55S, D58W, E62F, Q65D, V66I
B21: SEQ ID NO 733 (designed binder)
chain: B11 chain with E8W, I9D, E12D, F19Y, F55E, E62W, Q65G, V66T
B22: SEQ ID NO 726 (designed binder)
chain: B8 chain with H9W, W19G, E59D, W62E, L65A, W66L
B23: SEQ ID NO 731 (designed binder)
chain: B11 chain with I9D, E12Y, F19Y, F55Y, D58W, E59G, E62T, Q65D, V66E
B24: SEQ ID NO 736 (designed binder)
chain: B11 chain with E8V, I9D, D16M, F55L, D58W, E59R, E62M, Q65Y, V66D
B25: SEQ ID NO 697 (designed binder)
chain: MGSWVEFWHRLDAIKARLNALGGSEAELAAFEKEIAAFESELQAYKGKGNPEVEDLRWYAADFRLILQAYRHN
B26: SEQ ID NO 692 (designed binder)
chain: B11 chain with F5S, I9Y, E12F, D16N, F19D, D58E, E62M, V66L
B27: SEQ ID NO 677 (designed binder)
chain: MGSWGEFWARLEAIWIRLDALGGSEAELAAFEKEIAAFESELQAYKGKGNPEVEWLREEAADIRRSLQAYRHN
B28: SEQ ID NO 911 (designed binder)
chain: MGSWHEFRWRLFAIWQRLHALGGSEAELAAFEKEIAAFESELQAYKGKGNPEVEWLRLDAALIRVMLQAYRHN
B29: SEQ ID NO 920 (designed binder)
chain: B28 chain with H5Y, F12H, Q16L, H19G, L58Q, L62Q, V65Y, M66I
B30: SEQ ID NO 939 (designed binder)
chain: MGSWWEFHVRLRAIEYRLEALGGSEAELAAFEKEIAAFESELQAYKGKGNPEVEQLRLIAANIRHLLQAYRHN
B31: SEQ ID NO 940 (designed binder)
chain: B30 chain with R12K, E19L, Q55D, L58Y, H65Q
B32: SEQ ID NO 934 (designed binder)
chain: MGSWSEFWFRLHAILYRLQALGGSEAELAAFEKEIAAFESELQAYKGKGNPEVETLRDAAAEIRVALQAYRHN
B33: SEQ ID NO 925 (designed binder)
chain: MGSWKTFKIELAGIKLELEALGGSEAELAGFENAIAQFESSLQYYKGKGNPEVEALRKEAAAIRDELQAYRHN
B34: SEQ ID NO 936 (designed binder)
chain: MGSWVEFWIRLNAIKYRLLALGGSEAELAAFEKEIAAFESELQAYKGKGNPEVEKLRQDAADIRELLQAYRHN
B35: SEQ ID NO 938 (designed binder)
chain: B34 chain with V5W, W8Y, I9L, N12R, K15S, L19Q, K55G, D62E, E65K
B36: SEQ ID NO 937 (designed binder)
chain: B34 chain with V5T, I9W, N12S, K15V, L19N, K55E, Q58D, D59M, E65S
B37: SEQ ID NO 930 (designed binder)
chain: MGSWFEFNIRLHAIEYRLKALGGSEAELAAFEKEIAAFESELQAYKGKGNPEVEELRNYAASIRKLLQAYRHN
B38: SEQ ID NO 931 (designed binder)
chain: B11 chain with E12R, D16Y, F19S, F55K, D58E, E59L, Q65Y, V66A
B39: SEQ ID NO 932 (designed binder)
chain: B37 chain with N8K, H12Y, E15Q, K19S, Y59L, S62E, K65H, L66S
B40: SEQ ID NO 922 (designed binder)
chain: MGSWWGFKVNLAWIKWKLEALGGSEAELAYFELWIANFEHSLQEYKGKGNPEVEALRKEAAAIRDELQAYRHN
B41: SEQ ID NO 923 (designed binder)
chain: MGSWVNFKTHLARIKVHLEALGGSEAELALFEHDIANFEQVLQQYKGKGNPEVEALRKEAAAIRDELQAYRHN
B42: SEQ ID NO 924 (designed binder)
chain: MGSWLVFKDELAGIKNYLEALGGSEAELATFEQDIAWFEQWLQNYKGKGNPEVEALRKEAAAIRDELQAYRHN
B43: SEQ ID NO 926 (designed binder)
chain: MGSWWEFKVRLSAIQYRLYALGGSEAELAAFEKEIAAFESELQAYKGKGNPEVEALREQAALIRTILQAYRHN
B44: SEQ ID NO 928 (designed binder)
chain: B30 chain with H8Q, E15Q, E19N, Q55Y, L58G, I59L, N62Q, H65F, L66D
B45: SEQ ID NO 929 (designed binder)
chain: B43 chain with V9I, S12Y, Q15E, Y19N, E58A, Q59K, L62Q, T65Y, I66N
B46: SEQ ID NO 927 (designed binder)
chain: B43 chain with K8H, V9I, S12H, Q15N, Y19A, Q59L, L62K, T65G, I66D
B47: SEQ ID NO 933 (designed binder)
chain: B30 chain with H8K, E19S, Q55E, L58V, I59L, N62S, H65I, L66H
B48: SEQ ID NO 935 (designed binder)
chain: B32 chain with S5I, F9V, H12N, Q19Y, T55A, A59S, V65R, A66W
B49: SEQ ID NO 921 (designed binder)
chain: MGSWHEFLRRLLAIEMRLYALGGSEAELAAFEKEIAAFESELQAYKGKGNPEVEHLRVRAASIRQMLQAYRHN

Molecular target: T1, recombinant human CD123-Fc
Experiment: phage ELISA, A450 target/A450 IgG1-Fc
How it was run: (§1)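 Phage were rescued in 96-well format with VCSM13 helper phage from individual phagemid colonies picked from panning output. Plates were coated with 1.3 microg/ml goat anti-human IgG1-Fc antibody, then 5 nM recombinant human target or IgG1-Fc, then 50 microl phage diluted 5× in ELISA blocking buffer. Binding was detected with HRP-conjugated anti-M13 antibody at 450 nm. The ELISA ratio is target over IgG1-Fc absorbance, averaged across all screened wells holding that clone.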

ELISA_avg [ratio] | Binder
10.6 | B1
3.9 | B2
3.9 | B3
10.6 | B4
9 | B5
5.3 | B6
4.8 | B7
6.3 | B8
6.3 | B9
15.3 | B10
3 | B11
6.9 | B12
8.9 | B13
6.2 | B14
6 | B15
21.8 | B16
4.9 | B17
4.5 | B18
3 | B19
4 | B20
4.9 | B21
6 | B22
4.7 | B23
7.1 | B24
3.5 | B25
3.2 | B26
15 | B27

Molecular target: HER2 (Homo sapiens (Human), UniProt P04626 23-652)
Experiment: phage ELISA, A450 target/A450 IgG1-Fc
How it was run: as §1

ELISA_avg [ratio] | Binder
10 | B28
7.18 | B29
5.48 | B30
4.56 | B31
14.8 | B32
4.95 | B33
10.6 | B34
5.1 | B35
5.76 | B36
7.86 | B37
7.75 | B38
13.1 | B39
8.69 | B40
7.91 | B41
3.28 | B42
5.17 | B43
14.4 | B44
4.49 | B45
11.9 | B46
10.1 | B47
3.91 | B48
8.15 | B49
